Literature values as cited in patent publication EP0759087B1, “COMPOSITIONS AND METHODS FOR TARGETING GENE DELIVERY VEHICLES” (CHIRON CORPORATION, priority 1994, dated 1995).
Where no end group is shown, it is not given here.

Target: receptor on melanocytes (Homo sapiens, UniProt Q01726)
Conditions: no source given, read-out: receptor affinity (KD)

receptor on melanocytes, sequence (Q01726 whole entry): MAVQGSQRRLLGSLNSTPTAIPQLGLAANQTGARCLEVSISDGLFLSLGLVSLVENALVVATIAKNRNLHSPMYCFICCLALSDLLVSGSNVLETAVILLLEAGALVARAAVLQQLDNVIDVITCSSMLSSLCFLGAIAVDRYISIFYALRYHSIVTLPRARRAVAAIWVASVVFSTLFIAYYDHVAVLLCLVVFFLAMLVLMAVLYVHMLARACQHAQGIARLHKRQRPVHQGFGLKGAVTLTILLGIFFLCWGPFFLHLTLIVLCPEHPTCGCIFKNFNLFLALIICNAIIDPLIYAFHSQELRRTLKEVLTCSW

S-Y-S-M-E-H-F-R-W-G-L-P-V-NH2 (SYSMEHFRWGLPV-NH2) [MSH, 13 amino acid peptide that is specifically recognized by a receptor on melanocytes]
Kd: ~10 nM
